In assay [1] the target is T1, recombinant human EGF (Sigma Cat#E9644) (human, UniProt P01133 971-1023).
T1 construct: also called huEGF
In words: ELISA, coated cytokine.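 Further: antibodies incubated 3 h at room temperature on cytokine-coated plates, binding read out with alkaline phosphatase-conjugated anti-species IgG secondary antibodies.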 On the technique in general: In an ELISA, binding on a coated surface is turned into a signal by an enzyme label.

Assay [2] deals with T2, recombinant mouse IL-23 (R&D Systems Cat#1887-ML) (mouse, UniProt Q9EQ14 22-196; P43432 23-335).
T2 construct: also called mIL-23
T2 sequence (looked up) 1: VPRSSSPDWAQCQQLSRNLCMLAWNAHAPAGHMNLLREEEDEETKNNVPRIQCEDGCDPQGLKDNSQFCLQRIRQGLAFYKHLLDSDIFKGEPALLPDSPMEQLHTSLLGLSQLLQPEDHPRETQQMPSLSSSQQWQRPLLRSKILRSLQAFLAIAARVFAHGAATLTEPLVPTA
T2 sequence (looked up) 2: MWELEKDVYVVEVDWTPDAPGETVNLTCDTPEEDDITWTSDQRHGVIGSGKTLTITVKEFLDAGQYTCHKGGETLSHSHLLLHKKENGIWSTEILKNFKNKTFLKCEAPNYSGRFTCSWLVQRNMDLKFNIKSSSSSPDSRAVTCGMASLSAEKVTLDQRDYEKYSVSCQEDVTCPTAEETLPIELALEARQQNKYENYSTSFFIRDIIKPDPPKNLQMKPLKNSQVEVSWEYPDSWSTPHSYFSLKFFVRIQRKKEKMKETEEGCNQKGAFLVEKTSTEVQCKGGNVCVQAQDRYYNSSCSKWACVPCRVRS
As to the kind of experiment: ELISA, coated cytokine.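 Further: antibodies incubated 3 h at room temperature on cytokine-coated plates, binding read out with alkaline phosphatase-conjugated anti-species IgG secondary antibodies.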

Assay [3] has as its target T3, recombinant mouse IL-1β (R&D Systems Cat#401-ML) (mouse, UniProt P10749 118-269).
T3 construct: also called mIL-1β
T3 sequence (looked up): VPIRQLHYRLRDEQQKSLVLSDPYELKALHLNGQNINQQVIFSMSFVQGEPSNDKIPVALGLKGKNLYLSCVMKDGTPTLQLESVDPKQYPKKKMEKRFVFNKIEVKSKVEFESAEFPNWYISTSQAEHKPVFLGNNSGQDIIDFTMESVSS
As to the kind of experiment: ELISA, coated cytokine.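 Further: antibodies incubated 3 h at room temperature on cytokine-coated plates, binding read out with alkaline phosphatase-conjugated anti-species IgG secondary antibodies.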

Assay [4] addresses T4, recombinant rat IL-6 (R&D Systems Cat#506-RL-010) (rat, UniProt P20607 25-211).
T4 sequence (looked up): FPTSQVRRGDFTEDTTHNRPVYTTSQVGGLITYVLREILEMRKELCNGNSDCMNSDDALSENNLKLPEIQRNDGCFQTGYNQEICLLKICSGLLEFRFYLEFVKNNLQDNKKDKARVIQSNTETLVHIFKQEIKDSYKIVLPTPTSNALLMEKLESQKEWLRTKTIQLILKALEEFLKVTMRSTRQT
As to the kind of experiment: ELISA, coated cytokine.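 Further: antibodies incubated 3 h at room temperature on cytokine-coated plates, binding read out with alkaline phosphatase-conjugated anti-species IgG secondary antibodies.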

Assay [5] has as its target T5, recombinant mouse IFN-γ (R&D Systems Cat#485-MT) (mouse, UniProt P01580 23-155).
T5 construct: also called mIFN-γ
T5 sequence (looked up): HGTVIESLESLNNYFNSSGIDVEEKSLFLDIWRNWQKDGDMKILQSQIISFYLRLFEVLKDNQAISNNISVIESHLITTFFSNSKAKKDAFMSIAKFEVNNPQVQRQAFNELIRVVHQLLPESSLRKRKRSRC
In words: ELISA, coated cytokine.

For assay [6], the target named is T6, recombinant human TNFα (Novartis) (human, UniProt P01375 77-233).
T6 construct: also called huTNFα
T6 sequence (P01375 77-233 limits assumed): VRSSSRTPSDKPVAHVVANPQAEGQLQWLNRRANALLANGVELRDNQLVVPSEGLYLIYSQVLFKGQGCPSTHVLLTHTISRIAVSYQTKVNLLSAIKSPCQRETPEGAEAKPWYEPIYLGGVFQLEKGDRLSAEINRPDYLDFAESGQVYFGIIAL
As to the kind of experiment: ELISA, coated cytokine.

The target in assay [7] is T7, recombinant human IL-8 (R&D Systems Cat#208-IL-010/CF) (human, UniProt P10145 28-99).
T7 construct: also called huIL-8
T7 sequence (looked up): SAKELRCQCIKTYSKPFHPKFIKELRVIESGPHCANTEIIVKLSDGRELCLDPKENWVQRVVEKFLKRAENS
In words: ELISA, coated cytokine.

In assay [8] the target is T8, recombinant human IL-20 (Novartis) (human, UniProt Q9NYY1 25-176, limits assumed).
T8 construct: also called huIL-20
T8 sequence (looked up): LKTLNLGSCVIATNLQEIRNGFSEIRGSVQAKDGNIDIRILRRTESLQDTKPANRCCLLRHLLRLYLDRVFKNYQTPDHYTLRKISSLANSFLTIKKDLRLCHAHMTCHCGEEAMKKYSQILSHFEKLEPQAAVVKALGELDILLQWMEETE
In words: ELISA, coated cytokine.

Assay [9] has as its target T9, recombinant human IL-4 (R&D Systems Cat#204-IL/CF) (human, UniProt P05112 25-153).
T9 construct: also called huIL-4
T9 sequence (looked up): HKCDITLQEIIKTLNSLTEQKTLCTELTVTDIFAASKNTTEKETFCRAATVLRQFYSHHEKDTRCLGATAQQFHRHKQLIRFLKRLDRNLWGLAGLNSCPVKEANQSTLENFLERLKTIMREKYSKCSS
As to the kind of experiment: ELISA, coated cytokine.

The target of assay [10] is T10, recombinant rat IL-4 (R&D Systems Cat#504-RL/CF) (rat, UniProt P20096 25-147, limits assumed).
T10 sequence (looked up): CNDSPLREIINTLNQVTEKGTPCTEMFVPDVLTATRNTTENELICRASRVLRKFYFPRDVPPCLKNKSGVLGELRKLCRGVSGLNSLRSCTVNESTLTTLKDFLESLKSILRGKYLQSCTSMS
As to the kind of experiment: ELISA, coated cytokine.

Assay [11] addresses T11, recombinant rat TNFα (R&D Systems Cat#510-RT/CF) (rat, UniProt P16599 80-235).
T11 sequence (looked up): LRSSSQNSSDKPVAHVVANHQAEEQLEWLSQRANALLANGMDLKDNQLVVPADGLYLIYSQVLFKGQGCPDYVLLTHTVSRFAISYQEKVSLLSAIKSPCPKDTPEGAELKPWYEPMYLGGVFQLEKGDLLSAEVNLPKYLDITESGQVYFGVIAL
In words: ELISA, coated cytokine.

For assay [12], the target named is T12, recombinant mouse IL-17A/F (R&D Systems Cat#5390-IL) (mouse, UniProt Q62386 26-158; Q7TNI7 29-161, limits assumed).
T12 construct: bought heterodimer; also called mIL-17A/F; rmIL-17A/F
T12 sequence (looked up) 1: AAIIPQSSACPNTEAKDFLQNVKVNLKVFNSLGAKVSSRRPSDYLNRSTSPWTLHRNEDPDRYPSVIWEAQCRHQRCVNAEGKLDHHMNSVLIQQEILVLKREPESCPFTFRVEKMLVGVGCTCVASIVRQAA
T12 sequence (looked up) 2: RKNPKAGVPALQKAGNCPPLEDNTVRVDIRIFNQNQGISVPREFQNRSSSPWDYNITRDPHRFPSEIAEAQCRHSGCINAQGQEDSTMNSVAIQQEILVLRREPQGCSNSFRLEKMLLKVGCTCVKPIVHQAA
As to the kind of experiment: ELISA, coated antigen, Ab 1 µg/ml.

Substitutions are numbered along the chain they refer to. In names and notes the source's numbering stands.

T1 sequence (P01133 971-1023 limits assumed): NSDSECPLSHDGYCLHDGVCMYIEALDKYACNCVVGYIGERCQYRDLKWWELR

B1: XAB4 (antibody, human IgG1, kappa, V domains shown)
VH: EVQLVESGGDLVQPGGSLRLSCAASGFTFSSYWMSWVRQAPGKGLEWVANIKQDGSEKYYVDSVKGRFTISRDNAKNSLYLQMNSLRAEDTAVYYCARDRGSLYYWGQGTLVTVSS
VL: AIQLTQSPSSLSASVGDRVTITCRPSQGINWELAWYQQKPGKAPKLLIYDASSLEQGVPSRFSGSGSGTDFTLTISSLQPEDFATYYCQQFNSYPLTFGGGTKVEIKR
notes: also called MB435 N56Q
For the molecule B1, the binding result in [1], in assay [2], in assay [3], in assay [4], in assay [5] and in assay [6] was “no binding (tested: 10 µg/ml)” in each case. For the same molecule, the binding result in [7], in assay [8], in assay [9], in assay [10] and in assay [11] was “no binding (tested: 10 µg/ml)” each time. Besides, the O.D. in [12] was found to be 2.26 O.D.

B2: XAB1 (antibody, human IgG1, kappa, V domains shown)
VH: B1 VH
VL: B1 VL with N30I, W31S, E32A, Q56N
notes: human IgG1/kappa monoclonal antibody; also called parental XAB1; XAB1 IgG
Take B2: the binding result in [1], in assay [2], in assay [3], in assay [4], in assay [5] and in [6] was “no binding (tested: 10 µg/ml)” in each case. Further, the binding result in assay [7], in [8], in assay [9], in [10] and in [11] was “no binding (tested: 10 µg/ml)” each time. Further, in [12], the O.D. turned out to be 1.76 O.D.

The values above are taken from patent US20180194839A1 (Novartis, published 2018).
